Results on eight molecules are retold here after US20120107330A1 (published 2012).

To fix the notation:
T1: human TNFR1 on MRC-5 cells (human, UniProt P19438 30-455)
T1 sequence (looked up): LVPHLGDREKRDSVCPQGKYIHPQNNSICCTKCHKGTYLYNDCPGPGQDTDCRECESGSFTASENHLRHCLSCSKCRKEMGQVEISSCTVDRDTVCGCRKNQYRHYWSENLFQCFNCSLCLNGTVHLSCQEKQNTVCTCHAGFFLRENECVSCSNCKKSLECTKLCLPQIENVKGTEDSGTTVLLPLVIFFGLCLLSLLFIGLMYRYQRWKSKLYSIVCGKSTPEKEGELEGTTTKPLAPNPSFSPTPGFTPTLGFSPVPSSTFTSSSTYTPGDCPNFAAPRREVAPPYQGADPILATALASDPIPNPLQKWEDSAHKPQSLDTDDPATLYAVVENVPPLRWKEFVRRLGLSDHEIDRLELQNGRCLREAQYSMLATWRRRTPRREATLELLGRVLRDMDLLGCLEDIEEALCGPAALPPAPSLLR

T2: human TNFR1 (recombinant, R&D Systems cat no. 636-R1/CF, biotinylated) (human, UniProt P19438 30-211, limits assumed, biotinylated with EZ-Link NHS-LC-LC-biotin)
T2 construct: it is not tied to the BIAcore reagent; also called p55; hTNFR1
T2 sequence (looked up): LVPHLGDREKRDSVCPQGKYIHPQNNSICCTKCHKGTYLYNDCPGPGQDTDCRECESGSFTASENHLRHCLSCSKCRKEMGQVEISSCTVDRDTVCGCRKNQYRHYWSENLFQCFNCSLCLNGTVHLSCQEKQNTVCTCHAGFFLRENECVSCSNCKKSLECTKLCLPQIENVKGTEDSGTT

T3: Cynomologus monkey TNFR1 on CYNOM-K1 cells (Cynomolgus monkey, UniProt Q2PFV5 30-455)
T3 sequence: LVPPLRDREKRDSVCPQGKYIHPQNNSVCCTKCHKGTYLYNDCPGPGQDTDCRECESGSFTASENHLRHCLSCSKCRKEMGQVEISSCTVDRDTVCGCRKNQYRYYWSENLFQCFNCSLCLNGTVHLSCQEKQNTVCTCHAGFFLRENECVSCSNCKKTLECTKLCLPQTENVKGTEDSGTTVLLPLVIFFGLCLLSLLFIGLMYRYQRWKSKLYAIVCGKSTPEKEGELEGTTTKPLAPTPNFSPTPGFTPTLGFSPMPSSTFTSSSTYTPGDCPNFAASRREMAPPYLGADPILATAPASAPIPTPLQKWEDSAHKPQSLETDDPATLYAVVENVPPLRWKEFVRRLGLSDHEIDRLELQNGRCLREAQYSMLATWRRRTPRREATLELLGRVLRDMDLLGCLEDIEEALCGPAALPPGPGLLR

T4: mouse TNFR1 on L929 cells (mouse, UniProt P25118 30-454)
T4 sequence (looked up): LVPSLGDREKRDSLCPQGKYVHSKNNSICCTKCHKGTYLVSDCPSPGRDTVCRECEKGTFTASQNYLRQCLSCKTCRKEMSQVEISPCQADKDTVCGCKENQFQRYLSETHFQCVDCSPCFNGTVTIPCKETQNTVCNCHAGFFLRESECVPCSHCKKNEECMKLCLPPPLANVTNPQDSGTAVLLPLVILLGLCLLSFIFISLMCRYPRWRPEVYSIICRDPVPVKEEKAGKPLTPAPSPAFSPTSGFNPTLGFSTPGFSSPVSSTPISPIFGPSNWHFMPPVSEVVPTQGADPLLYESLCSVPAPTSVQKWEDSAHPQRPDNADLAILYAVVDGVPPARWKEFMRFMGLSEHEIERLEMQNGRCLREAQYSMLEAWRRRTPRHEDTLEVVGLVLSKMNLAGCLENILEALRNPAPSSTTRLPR

T5: mouse TNFR1 (recombinant, R&D Systems cat no. 425-R1-050/CF, biotinylated) (mouse, UniProt P25118 22-212, biotinylated with EZ-Link NHS-LC-LC-biotin)
T5 construct: also called murine TNFR1; biotinylated mouse TNFR1
T5 sequence (looked up): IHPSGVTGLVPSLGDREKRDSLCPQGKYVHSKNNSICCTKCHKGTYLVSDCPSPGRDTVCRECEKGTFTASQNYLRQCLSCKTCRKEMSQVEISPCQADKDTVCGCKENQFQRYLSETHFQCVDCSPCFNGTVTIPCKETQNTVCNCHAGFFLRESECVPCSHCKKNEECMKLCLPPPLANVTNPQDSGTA

B1: DOM1h-574-72 (other)
VH: EVQLLESGGGLVQPGGSLRLSCAASGFTFVKYSMGWVRQAPGKGLEWVSQISNTADRTYYAHSVKGRFTISRDNSKNTLYLQMNSLRAEDTAVYYCAIYTGRWVPFEYWGQGTLVTVSS
notes: VH dAb; expressed in E. coli, purified on Protein A
B2: DMS0186 (bispecific antibody)
chain: EVQLLESGGGLVQPGGSLRLSCAASGFTFVKYSMGWVRQAPGKGPEWVSQISNTGDRTYYADSVKGRFTISRDNSKNTLYLQMNSLRAEDTAVYYCAIYTGRWEPFDYWGQGTLVTVSSASTDIQMTQSPSSLSASVGDRVTITCRASRPIGTMLSWYQQKPGKAPKLLILFGSRLQSGVPSRFSGSGSGTDFTLTISSLQPEDFATYYCAQAGTHPTTFGQGTKVEIKRAAAEQKLISEEDLN
notes: anti-TNFR1 dAb / AlbudAb in-line fusion
B3: DMS0188 (bispecific antibody)
chain: EVQLLESGGGLVQPGGSLRLSCAASGFTFVKYSMGWVRQAPGKGPEWVSQISNTGDRTYYADSVKGRFTISRDNSKNTLYLQMNSLRAEDTAVYYCAIYTGRWEPFDYWGQGTLVTVSSASTSGPSDIQMTQSPSSLSASVGDRVTITCRASRPIGTMLSWYQQKPGKAPKLLILFGSRLQSGVPSRFSGSGSGTDFTLTISSLQPEDFATYYCAQAGTHPTTFGQGTKVEIKRAAAEQKLISEEDLN
notes: as for B2
B4: DMS0184 (bispecific antibody)
chain: EVQLLESGGGLVQPGGSLRLSCAASGFTFVKYSMGWVRQAPGKGPEWVSQISNTGDRTYYADSVKGRFTISRDNSKNTLYLQMNSLRAEDTAVYYCAIYTGRWEPFDYWGQGTLVTVSSASTSGPSDIQMTQSPSSLSASVGDRVTITCRASRPIGTTLSWYQQKPGKAPKLLIWFGSRLQSGVPSRFSGSGSGTDFTLTISSLQPEDFATYYCAQAGTHPTTFGQGTKVEIKR
notes: as for B2
B5: DOM1h-574-155 (other)
VH: B1 VH with V30L, N53D
notes: VH dAb
B6: DOM1h-574-138 (other)
VH: B1 VH with V30F, N53D, V104A
notes: VH dAb
B7: DOM1h-574-133 (other)
VH: B1 VH with N53D, A61D, V104E, E107V
notes: VH dAb
B8: DOM1h-574-135 (other)
VH: B1 VH with N53D, A61T
notes: VH dAb

For orientation: Kd means the concentration at which binding is half-saturated. One may read the koff as the rate constant with which the complex falls apart. One may read the kon as a measure of how fast the partners come together.

Residue numbers refer to the chain shown, from its start.

In the first assay the target is T1, human TNFR1 on MRC-5 cells. In words: cell-based or functional assay.
Turning to B1, the “MRC5 (ND50 in nM)” value is 2.7 nM.

The next assay concerns the target T2, human TNFR1 (recombinant, R&D Systems …). In words: BIAcore T100, biotinylated human TNFR1 on chip. On the procedure:
Furthermore, the affinity and potency of the purified fusion molecules were determined using a BIAcore T100 and the MRC5 cell assay, respectively. The BIAcore T100 is a highly sensitive BIAcore version ideally suited for determination of high affinity binders (Papalia et al., Anal Biochem. 359, p 112 (2006)). Biotinylated, human TNFR1 was coated on the chip and each of the twelve AlbudAb fusions were passed over this surface at four different concentrations (2, 10, 50 and 250 nM). […] This improvement is observed regardless of the AlbudAb used for pairing and largest for the pairings with DOM7h-14-18. A second experiment used to establish if the different pairings affected the functional activity of the anti-TNFR1 dAb was the MRC5 cell assay (Table 8). A more marked difference between the pairings is observed in the MRC5 assay, in which the best potencies are observed in pairings with DOM7h-11-3 and DOM7h-11-12 while pairings with DOM7h-14-10 (DMS0117) lead to significant decreases in potency.
A general note: In SPR one partner is held on a chip, and binding of the other changes the refractive index at the surface.
In the case of B1, the Kd worked out at 0.53 nM, the koff stood at 0.00011 s⁻¹ and the kon came out at 200000 M⁻¹ s⁻¹.

The target in the next assay is T6, human serum albumin (HSA, Sigma-Aldrich) (human, UniProt P02768 25-609).
T6 construct: also called human albumin
T6 sequence (P02768 25-609 limits assumed): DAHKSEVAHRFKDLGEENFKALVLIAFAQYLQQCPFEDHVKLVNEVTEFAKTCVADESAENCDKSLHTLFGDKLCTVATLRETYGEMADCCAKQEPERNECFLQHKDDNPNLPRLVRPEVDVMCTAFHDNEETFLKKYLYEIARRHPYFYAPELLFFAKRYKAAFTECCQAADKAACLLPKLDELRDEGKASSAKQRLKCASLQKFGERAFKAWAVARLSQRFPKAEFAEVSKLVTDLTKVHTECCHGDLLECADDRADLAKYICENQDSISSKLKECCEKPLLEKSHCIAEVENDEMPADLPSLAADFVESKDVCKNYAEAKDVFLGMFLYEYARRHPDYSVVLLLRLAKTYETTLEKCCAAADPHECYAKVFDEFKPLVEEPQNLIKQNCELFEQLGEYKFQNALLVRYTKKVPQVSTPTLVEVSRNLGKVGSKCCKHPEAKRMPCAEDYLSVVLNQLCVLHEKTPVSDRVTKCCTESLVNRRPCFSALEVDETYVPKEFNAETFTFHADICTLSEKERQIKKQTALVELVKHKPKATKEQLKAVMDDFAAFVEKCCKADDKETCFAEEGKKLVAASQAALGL
Put plainly: BIAcore, HSA on CM5 chip. The method, then:
FIG. 23. BIAcore analysis for binding of DOM0100-AlbudAb in-line fusions to human serum albumin (HSA). HSA (Sigma-Aldrich) was coated on a BIAcore CM5 chip using EDC/NHS chemistry according to manufacturer's instructions. Subsequently, the DMS constructs, each consisting N-terminally to C-terminally of an anti-TNFR1 dAb-Linker-AlbudAb and identified in Table 6, were injected at 1 μM over the HSA surface and binding was monitored. […] The corresponding BIAcore trace for each DMS clone is indicated with an arrow.
Regarding B2, the koff was found to be 0.12 s⁻¹.

For the molecule B3, the koff turned out to be 0.12 s⁻¹.

As to B4, the koff came out at 0.16 s⁻¹.

The target of the next assay is T7, mouse serum albumin (MSA, Sigma-Aldrich) (mouse, UniProt P07724 25-608).
T7 construct: also called mouse albumin
In words: BIAcore, MSA on CM5 chip. The method, then:
FIG. 22. BIAcore analysis for binding of DOM0100-AlbudAb in-line fusions to mouse serum albumin (MSA). MSA (Sigma-Aldrich) was coated on a BIAcore CM5 chip using EDC/NHS chemistry according to manufacturer's instructions. Subsequently, the DMS constructs, each consisting N-terminally to C-terminally of an anti-TNFR1 dAb-Linker-AlbudAb and identified in Table 6, were injected at 1 μM over the MSA surface and binding was monitored. […] The corresponding BIAcore trace for each DMS clone is indicated with an arrow.
After expression and purification, all constructs were tested on the BIAcore for binding to both mouse and human serum albumin. The off-rates were determined and used to discriminate between the AlbudAbs for their suitability in prolonging the half-life of the fusion molecule. Whereas the linker had little influence on the affinity of the AlbudAb for albumin, a significant difference existed between the dAbs and their albumin affinity. The best AlbudAb for mouse binding was DOM7h-11-15 followed by DOM7m-16 and DOM7h-11-12 (FIG. 22).
With B2, the koff was determined as 0.08 s⁻¹.

The molecule B3 had a koff of 0.08 s⁻¹.

With B4, the koff turned out to be 0.72 s⁻¹.

For the next assay, the target named is T3, Cynomologus monkey TNFR1 on CYNOM-K1 …. In words: cell-based or functional assay.
For B1, the “Cynomologus CYNOM-K1 ND50” value turned out to be 2.3 nM.

Regarding B5, the “Cynomologus CYNOM-K1 ND50” value came to 1.6 nM.

For the molecule B6, the “Cynomologus CYNOM-K1 ND50” value came to 1.2 nM.

Regarding B7, the “Cynomologus CYNOM-K1 ND50” value was determined as 1.7 nM.

B8: the “Cynomologus CYNOM-K1 ND50” value worked out at 1.5 nM.

A further assay deals with T4, mouse TNFR1 on L929 cells. In words: cell-based or functional assay.
For the molecule B1, the “Mouse L929 ND50” value turned out to be 46 nM.

On to B5, for which the “Mouse L929 ND50” value was determined as 67 nM.

For B6, the “Mouse L929 ND50” value was determined as 23 nM.

Consider B7, for which the “Mouse L929 ND50” value was 110 nM.

In the case of B8, the “Mouse L929 ND50” value was determined as 47 nM.

The next assay deals with T1, human TNFR1 on MRC-5 cells. In words: cell-based or functional assay. The source holds these as a separate data set.
As to B1, the “Human MRC5 ND50” value was 2.7 nM.

With B5, the “Human MRC5 ND50” value is 2.1 nM.

Consider B6, for which the “Human MRC5 ND50” value amounted to 1.4 nM.

B7: the “Human MRC5 ND50” value amounted to 2.1 nM.

For the molecule B8, the “Human MRC5 ND50” value worked out at 1.8 nM.

For another assay, the target named is T1, human TNFR1 on MRC-5 cells. Put plainly: cell-based or functional assay. This is another data set of the same source.
In the case of B2, the “ND50 (MRC5)” value amounted to 20 nM.

In the case of B3, the “ND50 (MRC5)” value was 17 nM.

B4: the “ND50 (MRC5)” value turned out to be 19 nM.

For the next assay, the target named is T5, mouse TNFR1 (recombinant, R&D Systems …). In words: BIAcore, mouse TNFR1 on SA chip. An excerpt: (§1) BIAcore was done to determine the association and dissociation rates of the different dAbs and in that way establish their binding affinity for both human and mouse TNFR1. Experiments were done using biotinylated TNFR1 (R&D Systems), of the respective species, coupled to streptavidin-coated BIAcore chips followed by injection of a concentration range of the dAbs.
Turning to B1, the Kd is 6.9 nM, the koff amounted to 0.00068 s⁻¹ and the kon is 100000 M⁻¹ s⁻¹.

Regarding B5, the Kd stood at 3.7 nM, the koff is 0.00033 s⁻¹ and the kon was 110000 M⁻¹ s⁻¹.

Take B6: the Kd turned out to be 2.4 nM, the koff is 0.0003 s⁻¹ and the kon amounted to 130000 M⁻¹ s⁻¹.

Consider B7, for which the Kd amounted to 5.2 nM, the koff was determined as 0.00075 s⁻¹ and the kon stood at 140000 M⁻¹ s⁻¹.

Take B8: the Kd came to 3.8 nM, the koff amounted to 0.00045 s⁻¹ and the kon is 110000 M⁻¹ s⁻¹.

The target of another assay is T2, human TNFR1 (recombinant, R&D Systems …). In words: BIAcore, human TNFR1 on SA chip.
Text: as §1
Turning to B1, the equilibrium dissociation constant (Kd) was found to be 0.35 nM, the koff turned out to be 8.4e-05 s⁻¹ and the kon was found to be 250000 M⁻¹ s⁻¹.

In the case of B5, the Kd came out at 0.18 nM, the dissociation rate constant (koff) was 4.3e-05 s⁻¹ and the kon came out at 240000 M⁻¹ s⁻¹.

As to B6, the Kd is 0.15 nM, the koff came out at 3.8e-05 s⁻¹ and the kon came out at 250000 M⁻¹ s⁻¹.

For B7, the Kd was 0.34 nM, the koff was 8.8e-05 s⁻¹ and the kon worked out at 260000 M⁻¹ s⁻¹.

With B8, the Kd came to 0.21 nM, the koff stood at 5.2e-05 s⁻¹ and the kon came out at 250000 M⁻¹ s⁻¹.
